B1: TPR t1 (parent)
chain: GACCAAUCUGCCCUCAGAGCUCGAGAACAUCUUCGGAUGCAGAGGAGGCAGGCUUCGGUGGCGCGAUAGCGCCAACGUCCUCAACCUCCAAUGCAUCCCACCACAUGAUGAUGCCUGAAGAGCCUUGGUUUUUUG

Variants of: B1
Test: polymerase ribozyme fitness, log enrichment relative to wild type (log ratio); higher = more active; in vitro selection for triplet polymerase activity
How it was run: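 Fitness measures genotype enrichment against wild-type enrichment on a logarithmic scale, with inverse-variance-weighted averaging of replicates. The logarithm is base 2, and genotypes were kept only with ≥10 input reads and ≥1 read per output in Illumina sequencing. The sequenced libraries came from one triplicate in vitro selection round, including frozen incubation at −7 °C, of PCR-built, transcribed mutant libraries of each subunit of a heterodimeric triplet polymerase ribozyme.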

Variant | polymerase ribozyme fitness (log ratio)
C34A G61A C94A | -3.89
C73A U131G | -0.242
C11G G35A G117U | -6.34
A5C U87G U96G C104U A121C | 0.96
C15A C98U | -3.62
A29U U109C C124A | -3.97
G61U C115U | -0.433
G47A G60C G71U A119U | -6.29
G10U C22U C98U | -5.53
C72U C115U | -0.526
G77A C79G A100U G113U C123G | -6.77
C12U C13G C82A G117A | -2.59
C13U A41G G48A G57U U132C | -1.47
C20U C102A | -3.26
C70U C94U | -0.0504
G47U A66G A118G U130G | -4.13
A43U C56U | -1.59
C4U C70U G77C | -1.36
G52U C56A C102A | -2.74
G39C C115U C124A | -0.672
U7A G44C C70G | -3.95

Variant | polymerase ribozyme fitness (log ratio)
C20U C53A A111G C114U | -7.62
A26G A105U | -3.51
G51C G60A | -3.46
C12U G39C | -0.515
G48U U132A | -0.856
G42A A46U C53A U87A | -2.21
G19C G44A G61A U125G | -2.72
A66G U131G | -2.21
G36U C56G C82U G113A | -2.31
C11G C88A | -0.146
A41U G45U C53G U55G G63U | -6.72
A95U U116G | -2
G61C C94U C115U A121G | -4.32
A24G C56A G60U A83C U133A | -2.54
U109C U130C | -5.04
C8G C20G G63C U109G | -3.93
C12U A74G A83C C114A C123G C124G | -1.02
U9C A26G A27U U54A C82G | -5.13
C20U G52A G60A U96A | -3.48
C22U U33A G36A G42A C72U U87A G113A | -6.59
U92G G93C G117C A121U | -5.65

Variant | polymerase ribozyme fitness (log ratio)
G52C C101A | -2.34
C28G G58C C94A | -3.94
G48A C72G C124U | 0.723
C53U C72G | -0.46
C56U G113C | -1.97
A43G U133G | -1.7
G48C G51U C73U C76A G77A A119G | -6.51
U38G C89A | -2.14
C8G C28G C56A C88A | -3.47
U33G | -5.67
C28G A50C G61A C88A | -3.77
U14G G19A G42A C56A G93C | -5.15
A2C | -1.4
C70U C76U G113C C123A | -5.89
C11U G120A U129G | -1.66
C34G C72A | -6.05
G39U C53U G61U C123A G135U | -0.952
G110C C114U | -4.33
G36A G52A A66G C79G | -2.84
U9G G48A A111G | 0.633
C86A U106A | 0.119

Variant | polymerase ribozyme fitness (log ratio)
C49G U112A | 0.92
C3U C12A A46U | -1.98
U32G | -6.71
U21A G44U C97U G113A | -2.33
G44C C56G G69U | -2.28
C97G C114U | -5.14
C53U C62G C64U C115A | -2.42
A46C C86U C88A A121C U130C | 0.304
C4U A29C G48U C56G A119G | -3.08
C13U C53U C114A G120C | -1.1
A18G C64G C98U G117C | -5.51
A18C G35U A103U C115U | -4.68
C22A C31G C62U C94A G110C | -6.66
C13G C56U U112C | 0.0684
U96C C114U | -2.44
A27C C88U | -3.46
G60C C86U | 0.269
C12U G48C G63U U130C | -1
C73G A100C | -1.47
C15G G47A C70G G117C | -3.82
C12A G36U G63A | -2.46

— the RNAGym collection of RNA variant scans (doi:10.1073/pnas.2313332121)
